Test results reported in patent US20260216328A1, “DISRUPTABLE LINKER COMPOSITIONS, SWITCHABLE BISPECIFIC T CELL NANOENGAGER (SWITCH-BITE) COMPOSITIONS COMPRISING THE SAME, AND METHODS OF USE THEREOF” (The Trustees of the University of Pennsylvania, priority 2023, published 2026).

What was measured:
[1] = tested on: Raji-Luc-GFP tumour cells; test: Cytokine release syndrome in humanized NSG-SGM3 mice with Raji-Luc-GFP tumour; format: in vivo, mouse
Description: An in vivo imaging system (IVIS) was used to monitor tumour burden in vivo. […] FIGS. 41C-41E: Mouse body weight, temperature and survival curves, respectively. n=10 mice. […] The data in FIGS. 41C-41D and FIGS. 41F-41J were plotted as mean±s.d. (n=10) from three independent experiments. […] P value in FIG. 41E was determined using Log-rank (Mantel-Cox) test.
SiTE and Blinatumomab were also compared with regard to treating symptoms of CRS and neurotoxicity. The humanized mouse model was constructed as before, but this time the piggybac transposon system was not used to express CD19 in the mouse livers. This allowed better analysis of the effects of the SiTE on CRS and neurotoxicity (FIG. 41A). Raji-Luc-GFP cells were i.v. injected at day −14. Blinatumomab, SiTE or PBS were i.v. injected to the mice at day one. Mouse tumour burden, body weight, temperature, and plasma cytokine levels were monitored (FIGS. 41B-41J).

[2] = Half-life and biodistribution of Blinatumomab and CD3/CD19 SiTE; format: in vivo, mouse
Description: FIGS. 17A-17F: half-life and in vivo biodistribution of Blinatumomab. FIGS. 17A-17B: Blinatumomab was labeled with Cy7 and was i.v. injected to healthy untreated mice. 10 μL of blood at 0, 1, 2, 4, 6, 12, 24, 36 and 48 h was collected and imaged using IVIS. The fluorescence signal at different time points were quantified (FIG. 17B). FIG. 17C: the biodistribution of Blinatumomab in healthy mice was also investigated 24 h after Blinatumomab-Cy7 injection. FIG. 17D: In order to mimic a clinical patient treatment, a mouse model was constructed with CD19 expression in the liver and a subcutaneous B-cell lymphoma model. Blinatumomab-Cy7 was i.v. injected at 0 h. The mice were euthanized at 24 h and the distribution of Blinatumomab-Cy7 in major organs and tumour was evaluated. The Blinatumomab-Cy7 mainly accumulates in the liver, spleen and tumour. The distribution of SiTE that targets human CD3 and human CD19 antigen was evaluated in both healthy untreated mice (FIG. 17E) and in a mouse model with CD19 expression in the liver and has a subcutaneous B-cell lymphoma tumour (FIG. 17F), similar results were obtained.
Encouraged by the results from the in vitro experiments, the controllable activity of SiTE was evaluated in vivo. […] It was also analyzed if the biodistribution of SiTE both in healthy NSG mice and in Raji tumour-bearing humanized NSG mice that express CD19 antigen in the liver. […]

[3] = mouse, in vivo; cited from earlier work
[4] = tested on: Raji-Luc-GFP tumour cells; test: Blinatumomab vaccine effect and CRS after discontinuation; format: in vivo, mouse
Description: Raji tumour cells and human T cells were co-cultured in serum-free medium and were treated with Blinatumomab for 24 h. After that, the cell culture medium was collected and the proteins in the medium were analyzed using proteomics. FIG. 44A: Large amount of damage associated molecule patterns (DAMPs); and FIG. 44B: tumour associated antigens were detected in the cell culture medium. FIG. 44C: Raji tumour bearing humanized NSG mice were treated with three doses of Blinatumomab. […] Then, Raji-Luc-GFP cell viability was determined. […] The data in FIG. 44C are presented as mean±s.d. (n=5) f. P value in FIG. 44C was determined using one-way ANOVA.
FIGS. 45A-45C: CRS symptoms cannot be stopped by simply stop the administration of Blinatumomab. FIG. 45A: humanized NSG mice were i.v. injected with Raji-Luc-GFP cells on day −14. Then Blinatumomab were administrated at days 1, 3, or 5. FIG. 45B: IL-6 level in mouse blood were monitored. FIG. 45C: survival curve.
It was also investigated if Blinatumomab could also induce a vaccine effect. […] It was also questioned whether CRS could be halted by simply discontinuing the administration of Blinatumomab, owing to its inherent short half-life. […] The pronounced targeting of T cells and CD19-expressing cells, coupled with heightened activation of many immune cells, served to amplify the cytokine cascade, rendering it impervious to interruption by the mere discontinuation of Blinatumomab usage. These findings underscore the critical exigency for the development of an alternative to Blinatumomab, one that can be switched off as needed, in this rapidly evolving research field.

[5] = tested on: Raji-Luc-GFP tumour cells; test: Humanized immune system mice with liver CD19 and Raji-Luc-GFP tumour; conditions: SiTE targets human CD3/CD19
Raji-Luc-GFP cells = test: Antitumour efficacy in normal NSG mice with Raji-Luc-GFP tumour; format: in vivo, mouse; conditions: days 1, 3, 5
Text: FIGS. 43A-43C: comparison of the antitumour efficacy of SITE and Blinatumomab. In order to solely compare the antitumour capacity of Blinatumomab and the SiTE, CD19 antigen was not expressed in mouse liver so BiTNE or SiTE treatment will not induce on-target, off-tumour toxicity. Additionally, normal NSG mice (without humanization) were used to construct the tumour model so the mice will not develop CRS. FIG. 43A: Raji-Luc-GFP cells were i.v. injected to mice at day −14. Tumour bearing mice were treated with Blinatumomab or SiTE at days 1, 3, or 5. FIG. 43B: mice were imaged using IVIS at days 0, 5, 9, and 13 to monitor the tumour burden level. c, Quantification of the luminescence levels in FIG. 43B. The data in FIG. 43C were plotted as mean s.d. (n=5) f. P value in FIG. 43C was determined using one-way ANOVA.
In order to specifically assess the antitumour efficacy of Blinatumomab and the SiTE, expression of the CD19 antigen in the mouse liver was refrained from. By employing this approach, it was ensured that treatment with either Blinatumomab or SiTE would not elicit on-target, off-tumour toxicity. To further avoid the effect of CRS on the evaluation of the therapeutic outcome of Blinatumomab and SiTE, normal NSG mice were employed, devoid of humanization.

[6] = tested on: Raji-Luc-GFP tumour cells; conditions: around day 33, after SiTE
Description: FIG. 42A: NSG-SGM3 mice were treated with Busulfan at day −50 to remove mouse bone marrow. At day −49, 10^5 human CD34^+ fetal liver cells were i.v. injected to let the mouse develop a human immune system. 10^6 Raji-Luc-GFP tumour cells were i.v. injected at day −14. At days 1, 3, and 5, PBS or SiTE was i.v. injected (in the PBS group, only PBS was injected to tumour-bearing mice). […] FIGS. 42B-42E: mouse body weight, temperature, IL-6 levels, and mouse survival curves, respectively. n=10 mice. The red stars in FIG. 42B indicate that mice were euthanized. FIG. 42F: measurements of IL-1 in mouse blood at different time points. n=10 mice. […] Brain H&E staining (FIG. 42I) and human CD68 immunohistochemistry (FIG. 42J) images of mice at day 35. The data in FIGS. 42B-42F were plotted as mean z s.d. (n=10) from three independent experiments.
It was also evaluated if the SiTE can help control neurotoxicity. In the clinic, neurotoxicity is usually delayed and occurs several […] after CRS onset. Tumour-bearing mice were treated with SiTE at days 1, 3 and 5 (FIG. 42A). […] Rather than use a preventative strategy for treating CRS (FIGS. 40A-40M), here Tocilizumab was used to treat CRS when symptoms presented, so that it can be compared directly with the SiTE strategy. […] Studies have shown that IL-1 is the major cause of neurotoxicity.

Row | Substance | fever and body weight ([1]; 5 mg/kg, days 1, 3, 5, SiTE targets human CD3/CD19) | plasma IL-6, IFN-γ, TNF-α, CXCL10 and CCL3 concentrations ([1]; after treatment) | biodistribution ([2]; Raji tumour-bearing humanized mice expressing human CD19 in the liver) | biodistribution ([2]; healthy mice with a humanized immune system, i.v.) | half-life [3] [h] | release of DAMPs and tumour antigens from tumour cells ([4]; high dose, Raji cells and human T cells, 24 h) | tumour cell killing by T cells from treated mice ([4]; high dose, vs T cells from PBS-treated mice) | serum IL-6 ([4]; humanized NSG mice, persisted after cessation) | tumour cell killing (IVIS) ([5]; 5 mg/kg i.v. x3, Tocilizumab pre-treatment) | on-target, off-tumour toxicity and CRS ([5]; 5 mg/kg i.v. x3) | tumour growth (Raji-Luc-GFP cells) | signs of lethal neurological syndrome [6]
1 | Blinatumomab: first BiTE to receive FDA approval; links CD3-positive T cells to CD19-expressing B cell cancers | induced high fever and body weight loss | greatly increased | high accumulation of Blinatumomab in the tumours, livers, and spleens | accumulated greatly in the spleens | 2.11 | substantial release of DAMPs and tumour antigens | substantial tumour cell killing | notable elevation of IL-6 levels | induced effective tumour cell killing | not only induced on-target, off-tumour toxicity in the liver, but led to strong CRS | substantial suppression of tumour growth | 
2 | Tocilizumab: commercialized drug for CRS treatment; antibody for the IL-6 receptor |  |  |  |  |  |  |  |  |  |  |  | developed sudden paralysis
